± gives the uncertainty stated by the source.

This series in a line: abundance fitness (aPCA) (normalised: wild type 0, dead -1); higher = more abundant; growth selection in yeast, the domain comes from the species named. Conditions: Homo sapiens.
“SAFB-like transcription modulator S50H, Q9NWH9” had an abundance fitness of -0.353 ± 0.47. “SAFB-like transcription modulator S50I, Q9NWH9”: the abundance fitness was -0.514 ± 0.29. The substance “SAFB-like transcription modulator S50K, Q9NWH9” yielded an abundance fitness of -0.111 ± 0.083. “SAFB-like transcription modulator S50L, Q9NWH9” showed an abundance fitness of -0.055 ± 0.075. As for “SAFB-like transcription modulator S50P, Q9NWH9”, the abundance fitness was -0.521 ± 0.14. In the case of “SAFB-like transcription modulator S50Q, Q9NWH9” it was -0.486 ± 0.22. Substance “SAFB-like transcription modulator S50R, Q9NWH9” showed an abundance fitness of -0.037 ± 0.062. As for “SAFB-like transcription modulator S50V, Q9NWH9”, the figure is -0.38 ± 0.072. For “SAFB-like transcription modulator T23A, Q9NWH9”, the abundance fitness was -0.063 ± 0.035. Substance “SAFB-like transcription modulator T23C, Q9NWH9” registered an abundance fitness of -0.083 ± 0.042. “SAFB-like transcription modulator T23D, Q9NWH9” yielded an abundance fitness of -0.093 ± 0.041. With “SAFB-like transcription modulator T23E, Q9NWH9”, the abundance fitness was -0.001 ± 0.034.

In turn, “SAFB-like transcription modulator T23F, Q9NWH9” gave an abundance fitness of -0.127 ± 0.035. Substance “SAFB-like transcription modulator T23G, Q9NWH9” came in with an abundance fitness of -0.072 ± 0.034. In the case of “SAFB-like transcription modulator T23H, Q9NWH9” it was -0.281 ± 0.034. As to “SAFB-like transcription modulator T23I, Q9NWH9”, the abundance fitness was -0.019 ± 0.033.

With “SAFB-like transcription modulator T23L, Q9NWH9”, the abundance fitness was -0.184 ± 0.031. “SAFB-like transcription modulator T23M, Q9NWH9” had an abundance fitness of -0.06 ± 0.038. For the substance “SAFB-like transcription modulator T23N, Q9NWH9”, the abundance fitness is -0.066 ± 0.035. In the case of “SAFB-like transcription modulator T23P, Q9NWH9” it was -0.339 ± 0.031; in that of “SAFB-like transcription modulator T23Q, Q9NWH9”, -0.034 ± 0.046. Consider “SAFB-like transcription modulator T23R, Q9NWH9”, for which the abundance fitness is -0.178 ± 0.033.

Turning to “SAFB-like transcription modulator T23S, Q9NWH9”, the abundance fitness was -0.021 ± 0.032. In the case of “SAFB-like transcription modulator T23V, Q9NWH9” it was -0.049 ± 0.031; in that of “SAFB-like transcription modulator T23W, Q9NWH9”, -0.175 ± 0.047.

In the case of “SAFB-like transcription modulator T23Y, Q9NWH9”, the abundance fitness is -0.083 ± 0.033. The substance “SAFB-like transcription modulator T42A, Q9NWH9” registered an abundance fitness of -0.045 ± 0.092. In turn, “SAFB-like transcription modulator T42C, Q9NWH9” yielded an abundance fitness of 0.078 ± 0.097. As for “SAFB-like transcription modulator T42D, Q9NWH9”, the abundance fitness turned out to be 0.061 ± 0.092. As for “SAFB-like transcription modulator T42E, Q9NWH9”, the figure is -0.107 ± 0.12; as for “SAFB-like transcription modulator T42G, Q9NWH9”, -0.247 ± 0.085; as for “SAFB-like transcription modulator T42I, Q9NWH9”, -0.682 ± 0.14. “SAFB-like transcription modulator T42K, Q9NWH9”: the abundance fitness turned out to be 0.035 ± 0.11.

“SAFB-like transcription modulator T42L, Q9NWH9” registered an abundance fitness of -0.345 ± 0.069. Regarding “SAFB-like transcription modulator T42M, Q9NWH9”, the abundance fitness is -0.104 ± 0.09. In turn, “SAFB-like transcription modulator T42N, Q9NWH9” gave an abundance fitness of -0.442 ± 0.16. In the case of “SAFB-like transcription modulator T42P, Q9NWH9” it was -0.729 ± 0.051.

In the case of “SAFB-like transcription modulator T42Q, Q9NWH9”, the abundance fitness stood at 0.127 ± 0.1. “SAFB-like transcription modulator T42R, Q9NWH9”: the abundance fitness was 0.057 ± 0.084. As for “SAFB-like transcription modulator T42S, Q9NWH9”, the figure is 0.071 ± 0.095.

Regarding “SAFB-like transcription modulator T42V, Q9NWH9”, the abundance fitness is -0.488 ± 0.099.

Regarding “SAFB-like transcription modulator T42W, Q9NWH9”, the abundance fitness was -0.315 ± 0.095.

With “SAFB-like transcription modulator T42Y, Q9NWH9”, the abundance fitness turned out to be 0.194 ± 0.11.

“SAFB-like transcription modulator T46A, Q9NWH9” returned an abundance fitness of -0.062 ± 0.068.

As to “SAFB-like transcription modulator T46C, Q9NWH9”, the abundance fitness was determined as 0.066 ± 0.074.

“SAFB-like transcription modulator T46D, Q9NWH9” had an abundance fitness of -0.235 ± 0.088. Turning to “SAFB-like transcription modulator T46E, Q9NWH9”, the abundance fitness is 0.004 ± 0.068. “SAFB-like transcription modulator T46F, Q9NWH9”: the abundance fitness was -0.358 ± 0.088. “SAFB-like transcription modulator T46G, Q9NWH9” registered an abundance fitness of -0.094 ± 0.06. For “SAFB-like transcription modulator T46H, Q9NWH9”, the abundance fitness is 0.011 ± 0.071. On to “SAFB-like transcription modulator T46I, Q9NWH9”, for which the abundance fitness was -0.107 ± 0.073. In the case of “SAFB-like transcription modulator T46K, Q9NWH9” it was 0.074 ± 0.09.

“SAFB-like transcription modulator T46L, Q9NWH9”: the abundance fitness is -0.082 ± 0.052. The substance “SAFB-like transcription modulator T46M, Q9NWH9” returned an abundance fitness of 0.111 ± 0.073.

On to “SAFB-like transcription modulator T46N, Q9NWH9”, for which the abundance fitness amounted to 0.103 ± 0.093. In the case of “SAFB-like transcription modulator T46P, Q9NWH9” it was 0.037 ± 0.071; in that of “SAFB-like transcription modulator T46Q, Q9NWH9”, -0.137 ± 0.074; in that of “SAFB-like transcription modulator T46R, Q9NWH9”, -0.163 ± 0.064. “SAFB-like transcription modulator T46S, Q9NWH9” returned an abundance fitness of 0.05 ± 0.059. “SAFB-like transcription modulator T46W, Q9NWH9”: the abundance fitness was -0.129 ± 0.038. “SAFB-like transcription modulator T46Y, Q9NWH9” came in with an abundance fitness of -0.097 ± 0.088. In turn, “SAFB-like transcription modulator V27A, Q9NWH9” showed an abundance fitness of -0.395 ± 0.1. “SAFB-like transcription modulator V27C, Q9NWH9” came in with an abundance fitness of -0.067 ± 0.094. Regarding “SAFB-like transcription modulator V27D, Q9NWH9”, the abundance fitness is -0.127 ± 0.12.

“SAFB-like transcription modulator V27E, Q9NWH9” had an abundance fitness of -0.153 ± 0.11. For “SAFB-like transcription modulator V27F, Q9NWH9”, the abundance fitness is -0.585 ± 0.15.
